Data taken from patent US20120264231A1, “ASSAY FOR ORAI CALCIUM CHANNEL REGULATORS” (IMMUNE DISEASE INSTITUTE, INC., priority 2009, published 2012).

Columns and labels:
ORAI1 = ORAI1 (Homo sapiens, UniProt Q96D31); assay: Confocal localization of mCherry-STIM1 proteins in HEK293 cells; type: cell-based; set-up: expressed in transfected cells; host or cells: HEK293; details: mCherry-STIM1 proteins coexpressed with ORAI1 in HEK293 cells
From the text: The localization of mCherry-STIM1 proteins in transiently-transfected HEK293 cells was investigated. mCherry-STIM1 (233-683), or (233-498) or (233-463) expressed alone, and also mCherry-STIM (233-683), or (233-498) or (233-463) expressed with ORAI-EYFP in the plasmid ratios 1:0, 0.5:1, 1:1, and 2:1 were examined. […] This is consistent with the functional assay in T cells and with recent reports in the literature (Muik, M., et al., J Biol Chem 283, 8014-8022 (2008); Penna, A., et al., Nature 456, 116-120 (2008); Ji, W., et al., Proc Natl Acad Sci USA 105, 13668-13673 (2008); Yuan, J. P., et al., Nat Cell Biol 11, 337-34 3 (2009); Muik, M., et al., J Biol Chem 284, 8421-8426 (2009); Park, C. Y., et al., Cell 136, 876-890 (2009)). […] The contrasting failure to detect binding of STIM 1 (233-463) in vitro might conceivably reflect the state of the bacterially-expressed protein as a mixture of trimers, tetramers, and undefined large aggregates. A more intriguing possibility, however, is that a weak interaction of STIM 1 (233-463) with ORAI is stabilized and rendered productive by additional proteins in mammalian cells.
An ORAI1-YFP expression plasmid was constructed by cloning the human ORAI1 cDNA (accession number NM_032790) into the vector pEYFP-N1 between the EcoRI and AgeI sites, in frame with the YFP coding sequence. mCherry-tagged STIM 1^CT fragments were made by subcloning mCherry between the BamHI and EcoRI sites of the vector pcDNA3.1(+) (Invitrogen), and subsequently inserting cDNA encoding STIM1^CT fragments between the EcoRI and XhoI sites.
HEK293 cells were transiently transfected with ORAI-YFP or mCherry-STIM plasmids using Lipofectamine 2000 (Invitrogen) according to the manufacturer's instructions. At 48 h post-transfection, confocal imaging was performed on a Zeiss LSM 510 laser scanning microscope with a 100× oil-immersion objective lens. YFP was excited at 488 nm with an argon laser and mCherry at 543 nm with a HeNe laser. All the experiments were carried out with cells bathed in Hanks' Balanced Salt Solution at 37° C.

[1] = Fura-2 Ca^2+ flux assay, control vesicles; type: biochemical, S cerevisiae; details: STIM 1 cytoplasmic fragments 2 μM
Experimental: It was next asked whether STIM-ORAI protein-protein interaction is sufficient to open the ORAI Ca^2+ channel. Vesicles obtained from S cerevisiae expressing ORAI were incubated under conditions where Fura-2 was the principal Ca^2+ buffer in the extravesicular solution in order to monitor Ca^2+ efflux (Meyer, T., et al., Biochemistry 29, 32-37 (1990)).
S cerevisiae strain NY17 featuring the temperature-sensitive sec6-4 mutation was used for protein expression and purification of secretory vesicles as described (Nakamoto, R. K., et al., J Biol Chem 266, 7940-7949 (1991); Coury, L. A., et al., Methods Enzymol 306, 169-186 (1999)). Cells were grown to midlog phase at 25° C. in uracil-deficient synthetic complete medium containing glucose, which was subsequently exchanged for galactose to induce transgene expression over a period of 8 hours. The temperature was then switched to 37° C. for 3 hours to force intracellular accumulation of secretory vesicles. […] Myc-tagged ORAI1 was detected in Western blots using the murine anti-Myc monoclonal antibody 9E10. […]
Fura-2 spectra were recorded at ambient temperature, 22-25° C., in 20 mM Tris pH 7.4, 100 mM KCl, containing 10 μM metal-free Fura-2. Excitation spectra were recorded by scanning from 300-450 nm while monitoring emission at 510 nm, using a 2-4 nm slitwidth for both excitation and emission. […]

Sequence of ORAI1 (Q96D31 whole entry): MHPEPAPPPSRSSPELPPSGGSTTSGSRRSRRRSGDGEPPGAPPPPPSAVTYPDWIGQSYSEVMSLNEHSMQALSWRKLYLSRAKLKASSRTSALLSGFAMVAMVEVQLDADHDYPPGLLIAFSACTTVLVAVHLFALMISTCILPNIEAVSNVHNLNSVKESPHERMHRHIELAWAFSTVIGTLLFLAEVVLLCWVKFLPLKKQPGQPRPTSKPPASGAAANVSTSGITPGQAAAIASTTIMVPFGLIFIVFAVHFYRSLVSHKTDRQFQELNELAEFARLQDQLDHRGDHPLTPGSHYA

Substance | localization at plasma membrane (ORAI1) | Ca^2+ release from control vesicles (Fura-2) [1]
STIM1 (233-463): truncated mouse STIM1 cytoplasmic fragment, residues 233-463, His-tagged recombinant protein | decorated the plasma membrane | 
STIM1 (233-498): truncated mouse STIM1 cytoplasmic fragment, residues 233-498, His-tagged recombinant protein | decorated the plasma membrane | neither STIM 1 fragment was effective
STIM1^CT: cytoplasmic region of STIM1, mouse residues 233-685, His-tagged recombinant protein expressed in E coli | decorated the plasma membrane | neither STIM 1 fragment was effective
